# Measurements taken from US20180142007A1 (published 2018).
# Substitutions are numbered along the chain they refer to. Like-named read-outs stand apart in the source and are kept apart here.
# B1: chimeric DC8E8 (isotype not stated where tested) (antibody)
# VH: QVQLQQSGPELVKPGTSVKMPCKASGYIFTDYVISWVKQRTGQGLEWIGEIFPRSGSTYYNEKFKGKATLTADKSSNTAYMQLSSVTSEDSAVYFCARDYYGTSFAMDYWGQGTSVTVSS
# light: DIVMSQSPSSLAVSAGEKVTMSCKSSQSLLNSRTRKNYLAWYQQKPGQSPKLLIYWASTRESGVPDRFTGSGSGTDFTLTISSVQAEDLAVYYCKQSFYLRTFGGGTKLDIKRTVAAPSVFIFPPSDEQLKSGTASVVCLLNNFYPREAKVQWKVDNALQSGNSQESVTEQDSKDSTYSLSSTLTLSKADYEKHKVYACEVTHQGLSSPVTKSFNRGEC
# B2: chimeric DC8E8, human IgG1/kappa (antibody)
# heavy: not shown
# light: B1 light
# B3: chimeric DC8E8, human IgG4/kappa (antibody)
# heavy: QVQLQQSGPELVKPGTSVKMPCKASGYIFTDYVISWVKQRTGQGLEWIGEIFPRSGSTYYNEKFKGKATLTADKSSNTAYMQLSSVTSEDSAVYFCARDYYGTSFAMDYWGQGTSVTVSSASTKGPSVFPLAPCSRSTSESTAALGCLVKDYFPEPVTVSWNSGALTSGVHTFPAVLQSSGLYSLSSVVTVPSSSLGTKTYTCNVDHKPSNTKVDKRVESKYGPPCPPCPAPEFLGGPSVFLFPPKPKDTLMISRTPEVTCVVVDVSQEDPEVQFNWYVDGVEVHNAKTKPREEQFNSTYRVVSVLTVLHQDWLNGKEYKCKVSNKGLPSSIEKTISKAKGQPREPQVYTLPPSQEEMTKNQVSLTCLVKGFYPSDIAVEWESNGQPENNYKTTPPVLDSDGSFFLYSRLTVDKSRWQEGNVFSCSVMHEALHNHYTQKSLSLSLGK
# light: B1 light
# B4: mouse monoclonal antibody DC8E8 (antibody)
# heavy: QVQLQQSGPELVKPGTSVKMPCKASGYIFTDYVISWVKQRTGQGLEWIGEIFPRSGSTYYNEKFKGKATLTADKSSNTAYMQLSSVTSEDSAVYFCARDYYGTSFAMDYWGQGTSVTVSSAKTTPPSVYPLAPGSAAQTNSMVTLGCLVKGYFPEPVTVTWNSGSLSSGVHTFPAVLQSDLYTLSSSVTVPSSTWPSQTVTCNVAHPASSTKVDKKIVPRDCGCKPCICTVPEVSSVFIFPPKPKDVLTITLTPKVTCVVVDISKDDPEVQFSWFVDDVEVHTAQTKPREEQINSTFRSVSELPIMHQDWLNGKEFKCRVNSAAFPAPIEKTISKTKGRPKAPQVYTIPPPKEQMAKDKVSLTCMITNFFPEDITVEWQWNGQPAENYKNTQPIMDTDGSYFVYSKLNVQKSNWEAGNTFTCSVLHEGLHNHHTEKSLSHSPGK
# VL: DIVMSQSPSSLAVSAGEKVTMSCKSSQSLLNSRTRKNYLAWYQQKPGQSPKLLIYWASTRESGVPDRFTGSGSGTDFTLTISSVQAEDLAVYYCKQSFYLRTFGGGTKLDIK
# B5: AX016-IgG4, humanized DC8E8 RHD/RKB, IgG4 isotype (antibody)
# heavy: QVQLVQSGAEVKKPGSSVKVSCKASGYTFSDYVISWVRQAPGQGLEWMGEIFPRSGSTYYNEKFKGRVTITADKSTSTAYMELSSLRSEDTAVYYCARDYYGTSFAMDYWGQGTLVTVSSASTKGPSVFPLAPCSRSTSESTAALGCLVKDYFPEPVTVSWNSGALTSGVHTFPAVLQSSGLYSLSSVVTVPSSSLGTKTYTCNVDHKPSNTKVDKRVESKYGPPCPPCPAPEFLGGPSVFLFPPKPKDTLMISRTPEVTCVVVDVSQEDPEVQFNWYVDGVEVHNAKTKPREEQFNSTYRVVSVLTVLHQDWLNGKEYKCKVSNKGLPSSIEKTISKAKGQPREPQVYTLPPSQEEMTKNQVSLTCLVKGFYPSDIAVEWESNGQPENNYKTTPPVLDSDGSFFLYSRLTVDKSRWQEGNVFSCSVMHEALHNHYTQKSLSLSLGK
# light: DIVMSQSPLSLPVTPGEPASISCKSSQSLLNSRTRKNYLAWYLQKPGQSPQLLIYWASTRESGVPDRFTGSGSGTDFTLKISRVEAEDVGVYYCKQSFYLRTFGQGTKVEIKRTVAAPSVFIFPPSDEQLKSGTASVVCLLNNFYPREAKVQWKVDNALQSGNSQESVTEQDSKDSTYSLSSTLTLSKADYEKHKVYACEVTHQGLSSPVTKSFNRGEC
# B6: AX004-IgG4, humanized DC8E8 RHD/RKA, IgG4 isotype (antibody)
# heavy: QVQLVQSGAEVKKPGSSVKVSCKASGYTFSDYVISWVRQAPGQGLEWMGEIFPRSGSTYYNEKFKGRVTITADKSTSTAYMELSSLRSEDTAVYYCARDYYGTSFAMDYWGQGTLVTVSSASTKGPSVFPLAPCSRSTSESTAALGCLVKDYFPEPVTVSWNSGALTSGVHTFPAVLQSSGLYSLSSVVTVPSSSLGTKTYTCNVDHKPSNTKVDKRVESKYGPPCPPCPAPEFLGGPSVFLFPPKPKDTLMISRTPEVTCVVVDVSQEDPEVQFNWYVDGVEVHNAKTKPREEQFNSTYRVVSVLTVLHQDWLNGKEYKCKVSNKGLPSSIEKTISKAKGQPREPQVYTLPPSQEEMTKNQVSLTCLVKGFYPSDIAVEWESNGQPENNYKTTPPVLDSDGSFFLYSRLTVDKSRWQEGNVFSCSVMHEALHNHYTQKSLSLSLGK
# light: B5 light with S5T
# B7: AX016-IgG1, humanized DC8E8 RHD/RKB, IgG1 isotype (antibody)
# heavy: not shown
# light: B5 light
# B8: AX004-IgG1, humanized DC8E8 RHD/RKA, IgG1 isotype (antibody)
# heavy: not shown
# light: B5 light with S5T
# B9: AX005-IgG1, humanized DC8E8 RHE/RKA, IgG1 isotype (antibody)
# heavy: not shown
# light: B5 light with S5T
# B10: AX005-IgG4, humanized DC8E8 RHE/RKA, IgG4 isotype (antibody)
# heavy: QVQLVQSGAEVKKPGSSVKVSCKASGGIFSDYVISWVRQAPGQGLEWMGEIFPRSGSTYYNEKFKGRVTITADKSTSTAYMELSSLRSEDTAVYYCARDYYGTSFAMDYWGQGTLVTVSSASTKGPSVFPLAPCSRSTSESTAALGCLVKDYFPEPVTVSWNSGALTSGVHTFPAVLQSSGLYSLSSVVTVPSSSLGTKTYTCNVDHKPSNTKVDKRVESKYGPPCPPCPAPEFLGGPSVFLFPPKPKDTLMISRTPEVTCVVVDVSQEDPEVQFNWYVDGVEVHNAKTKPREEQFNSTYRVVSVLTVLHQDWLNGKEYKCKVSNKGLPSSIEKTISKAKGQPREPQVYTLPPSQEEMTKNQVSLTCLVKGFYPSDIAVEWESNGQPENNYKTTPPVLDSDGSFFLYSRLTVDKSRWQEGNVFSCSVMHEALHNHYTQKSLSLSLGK
# light: B5 light with S5T
# B11: AX016, humanized DC8E8 RHD/RKB (isotype not stated where tested) (antibody)
# VH: QVQLVQSGAEVKKPGSSVKVSCKASGYTFSDYVISWVRQAPGQGLEWMGEIFPRSGSTYYNEKFKGRVTITADKSTSTAYMELSSLRSEDTAVYYCARDYYGTSFAMDYWGQGTLVTVSS
# light: B5 light
# B12: AX004, humanized DC8E8 RHD/RKA (isotype not stated where tested) (antibody)
# VH: B11 VH
# light: B5 light with S5T
# B13: AX017-IgG1, humanized DC8E8 RHE/RKB, IgG1 isotype (antibody)
# heavy: not shown
# light: B5 light
# B14: AX017-IgG4, humanized DC8E8 RHE/RKB, IgG4 isotype (antibody)
# heavy: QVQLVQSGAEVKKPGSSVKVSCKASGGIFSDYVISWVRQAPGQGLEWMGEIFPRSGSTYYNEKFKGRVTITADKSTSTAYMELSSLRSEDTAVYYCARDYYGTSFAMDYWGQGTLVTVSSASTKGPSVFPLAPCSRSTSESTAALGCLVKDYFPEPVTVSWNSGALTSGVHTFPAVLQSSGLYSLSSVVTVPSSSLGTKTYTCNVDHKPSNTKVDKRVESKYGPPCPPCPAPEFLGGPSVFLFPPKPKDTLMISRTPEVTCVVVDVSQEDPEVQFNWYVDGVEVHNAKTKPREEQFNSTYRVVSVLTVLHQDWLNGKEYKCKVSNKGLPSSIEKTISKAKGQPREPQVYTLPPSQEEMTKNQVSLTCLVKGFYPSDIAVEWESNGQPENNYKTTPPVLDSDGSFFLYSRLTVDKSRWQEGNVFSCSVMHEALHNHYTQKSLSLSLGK
# light: B5 light
# Experiments:
# [1] = molecular target: T1, misdisordered truncated tau 151-391/4R (UniProt P10636 468-708); assay: SPR
# T1 sequence (P10636 468-708): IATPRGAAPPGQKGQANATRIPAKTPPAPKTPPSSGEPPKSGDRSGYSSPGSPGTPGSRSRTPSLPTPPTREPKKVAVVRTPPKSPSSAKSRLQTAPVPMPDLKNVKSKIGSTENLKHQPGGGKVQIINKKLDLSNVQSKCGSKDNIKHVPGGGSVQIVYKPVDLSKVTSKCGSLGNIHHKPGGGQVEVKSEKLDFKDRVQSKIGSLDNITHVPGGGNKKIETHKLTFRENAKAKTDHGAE
# [2] = molecular target: T2, full length physiological tau 2N4R (UniProt P10636 1-758); assay: SPR
# T2 sequence (P10636 other isoform, or with tags, fused parts or gaps): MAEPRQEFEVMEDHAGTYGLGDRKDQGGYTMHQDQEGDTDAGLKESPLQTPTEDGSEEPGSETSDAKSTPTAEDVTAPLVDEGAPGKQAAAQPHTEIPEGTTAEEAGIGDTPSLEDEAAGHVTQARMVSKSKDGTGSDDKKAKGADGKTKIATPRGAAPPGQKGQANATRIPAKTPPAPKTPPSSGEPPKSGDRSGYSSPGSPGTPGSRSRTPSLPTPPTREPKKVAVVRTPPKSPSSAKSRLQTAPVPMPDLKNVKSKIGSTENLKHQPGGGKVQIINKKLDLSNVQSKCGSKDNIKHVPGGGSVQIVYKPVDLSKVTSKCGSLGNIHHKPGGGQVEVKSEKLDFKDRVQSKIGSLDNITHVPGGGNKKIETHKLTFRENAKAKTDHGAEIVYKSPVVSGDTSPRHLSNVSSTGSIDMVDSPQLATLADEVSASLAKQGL
# [3] = molecular target: T1, misdisordered truncated tau 151-391/4R; assay: SPR; remark: listed apart in the source
# tau peptide 256-285 [4] = molecular target: T3, tau peptide 256-285; assay: ELISA
# T3 peptide: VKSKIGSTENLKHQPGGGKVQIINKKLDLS
# tau peptide 352-380 [5] = molecular target: T4, tau peptide 352-380; assay: ELISA
# T4 peptide: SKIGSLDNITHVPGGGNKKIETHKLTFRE
# tau peptide 282-311 [6] = molecular target: T5, tau peptide 282-311; assay: ELISA
# T5 peptide: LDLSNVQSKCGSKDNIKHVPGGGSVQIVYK
# tau peptide 314-342 [7] = molecular target: T6, tau peptide 314-342; assay: ELISA
# T6 peptide: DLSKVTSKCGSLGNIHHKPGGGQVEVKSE
# tau peptide 256-285 [8] = molecular target: T3, tau peptide 256-285; assay: ELISA
# tau peptide 352-380 [9] = molecular target: T4, tau peptide 352-380; assay: ELISA
# tau peptide 282-311 [10] = molecular target: T5, tau peptide 282-311; assay: ELISA
# tau peptide 314-342 [11] = molecular target: T6, tau peptide 314-342; assay: ELISA
# [12] = molecular target: T1, misdisordered truncated tau 151-391/4R; assay: SPR; remark: listed apart in the source
# [13] = molecular target: T1, misdisordered truncated tau 151-391/4R; assay: ELISA
# [14] = molecular target: T1, misdisordered truncated tau 151-391/4R; assay: SPR; remark: listed apart in the source
# tau peptide 256-285 [15] = molecular target: T3, tau peptide 256-285; assay: ELISA; IgG4
# tau peptide 352-380 [16] = molecular target: T4, tau peptide 352-380; assay: ELISA; IgG4
# tau peptide 314-342 [17] = molecular target: T6, tau peptide 314-342; assay: ELISA; IgG4
# [18] = molecular target: T1, misdisordered truncated tau 151-391/4R; assay: SPR; IgG4
# [19] = molecular target: T2, full length physiological tau 2N4R; assay: SPR; IgG4
# [20] = molecular target: T1, misdisordered truncated tau 151-391/4R; assay: ELISA; IgG1
# [21] = molecular target: T2, full length physiological tau 2N4R; assay: ELISA; IgG1
# [22] = molecular target: T1, misdisordered truncated tau 151-391/4R; assay: SPR; IgG1
# [23] = molecular target: T2, full length physiological tau 2N4R; assay: SPR; IgG1
# tau peptide 256-285 [24] = molecular target: T3, tau peptide 256-285; assay: ELISA
# tau peptide 352-380 [25] = molecular target: T4, tau peptide 352-380; assay: ELISA
# tau peptide 282-311 [26] = molecular target: T5, tau peptide 282-311; assay: ELISA
# tau peptide 314-342 [27] = molecular target: T6, tau peptide 314-342; assay: ELISA
# [28] = molecular target: T1, misdisordered truncated tau 151-391/4R; assay: SPR; remark: listed apart in the source
# [29] = molecular target: T1, misdisordered truncated tau 151-391/4R; assay: SPR; remark: listed apart in the source
binder,measurement,setting,value
B1,Ka,[1],4.2e+08 M⁻¹
same,Ka,[2],4.4e+07 M⁻¹
same,Kd,[3],10.4 nM
same,EC50,tau peptide 256-285 [4],0.0212 µg/mL
same,EC50,tau peptide 352-380 [5],0.087 µg/mL
same,EC50,tau peptide 282-311 [6],7.31 ng/mL
same,EC50,tau peptide 314-342 [7],0.0173 µg/mL
same,EC50,tau peptide 256-285 [8],0.0297 µg/mL
same,EC50,tau peptide 352-380 [9],0.0814 µg/mL
same,EC50,tau peptide 282-311 [10],8.52 ng/mL
same,EC50,tau peptide 314-342 [11],0.0265 µg/mL
same,Kd,[12],10.4 nM
B2,EC50,[13],0.0214 µg/mL
B3,EC50,[13],0.0507 µg/mL
B4,EC50,[13],0.0448 µg/mL
same,Kd,[14],10.4 nM
same,Ka,[1],1.9e+08 M⁻¹
same,Ka,[2],3.9e+07 M⁻¹
same,EC50,tau peptide 256-285 [4],0.0433 µg/mL
same,EC50,tau peptide 352-380 [5],0.213 µg/mL
same,EC50,tau peptide 282-311 [6],11.8 ng/mL
same,EC50,tau peptide 314-342 [7],0.039 µg/mL
same,Kd,[12],10.4 nM
B5,EC50,tau peptide 256-285 [15],0.0139 µg/mL
same,EC50,tau peptide 352-380 [16],0.085 µg/mL
same,EC50,tau peptide 314-342 [17],0.0153 µg/mL
same,Ka,[18],7.2e+08 M⁻¹
same,Ka,[19],6.6e+07 M⁻¹
same,EC50,tau peptide 282-311 [10],7.56 ng/mL
B6,EC50,tau peptide 256-285 [15],0.0132 µg/mL
same,EC50,tau peptide 352-380 [16],0.0814 µg/mL
same,EC50,tau peptide 314-342 [17],0.013 µg/mL
same,Ka,[18],7.75e+08 M⁻¹
same,Ka,[19],6.5e+07 M⁻¹
same,EC50,tau peptide 282-311 [10],6.7 ng/mL
B7,EC50,[20],0.0137 µg/mL
same,EC50,[21],0.0513 µg/mL
same,Ka,[22],1.6e+09 M⁻¹
same,Ka,[23],1.9e+08 M⁻¹
same,EC50,tau peptide 256-285 [24],0.0117 µg/mL
same,EC50,tau peptide 352-380 [25],0.0566 µg/mL
same,EC50,tau peptide 282-311 [26],6.47 ng/mL
same,EC50,tau peptide 314-342 [27],0.0122 µg/mL
B8,EC50,[20],0.0147 µg/mL
same,EC50,[21],0.0532 µg/mL
same,Ka,[22],1.6e+09 M⁻¹
same,Ka,[23],1.1e+08 M⁻¹
same,EC50,tau peptide 256-285 [24],0.0121 µg/mL
same,EC50,tau peptide 352-380 [25],0.0587 µg/mL
same,EC50,tau peptide 282-311 [26],5.98 ng/mL
same,EC50,tau peptide 314-342 [27],0.0118 µg/mL
B9,EC50,tau peptide 352-380 [25],0.579 µg/mL
same,EC50,tau peptide 282-311 [26],6.8 ng/mL
same,EC50,tau peptide 314-342 [27],0.0562 µg/mL
B10,EC50,tau peptide 352-380 [16],0.397 µg/mL
same,EC50,tau peptide 314-342 [17],0.0745 µg/mL
same,EC50,tau peptide 282-311 [10],8.98 ng/mL
B11,Kd,[28],9.39 nM
same,Kd,[12],9.39 nM
B12,Kd,[29],14.7 nM
same,Kd,[12],14.7 nM
B13,EC50,tau peptide 352-380 [25],0.883 µg/mL
same,EC50,tau peptide 282-311 [26],7.66 ng/mL
same,EC50,tau peptide 314-342 [27],0.096 µg/mL
B14,EC50,tau peptide 352-380 [16],0.385 µg/mL
same,EC50,tau peptide 314-342 [17],0.0726 µg/mL
same,EC50,tau peptide 282-311 [10],9.01 ng/mL
